Source: US12480163

Biological target: p53 (tumor protein 53, TP53)

B1: Wip1 (wild-type p53-induced phosphatase 1; encoded by the PPM1D gene) (protein)
chain: MAGLYSLGVSVFSDQGGRKYMEDVTQIVVEPEPTAEEKPSPRRSLSQPLPPRPSPAALPGGEVSGKGPAVAAREARDPLPDAGASPAPSRCCRRRSSVAFFAVCDGHGGREAAQFAREHLWGFIKKQKGFTSSEPAKVCAAIRKGFLACHLAMWKKLAEWPKTMTGLPSTSGTTASVVIIRGMKMYVAHVGDSGVVLGIQDDPKDDFVRAVEVTQDHKPELPKERERIEGLGGSVMNKSGVNRVVWKRPRLTHNGPVRRSTVIDQIPFLAVARALGDLWSYDFFSGEFVVSPEPDTSVHTLDPQKHKYIILGSDGLWNMIPPQDAISMCQDQEEKKYLMGEHGQSCAKMLVNRALGRWRQRMLRADNTSAIVICISPEVDNQGNFTNEDELYLNLTDSPSYNSQETCVMTPSPCSTPPVKSLEEDPWPRVNSKDHIPALVRSNAFSENFLEVSAEIARENVQGVVIPSKDPEPLEENCAKALTLRIHDSLNNSLPIGLVPTNSTNTVMDQKNLKMSTPGQMKAQEIERTPPTNFKRTLEESNSGPLMKKHRRNGLSRSSGAQPASLPTTSQRKNSVKLTMRRRLRGQKKIGNPLLHQHRKTVCVC
In the case of B1, the “phospho-Serine15-p53 protein levels (Western blot) after combined ATSP-7041 and GSK2830371 treatment” value is reported as “the combination of ATSP-7041 and GSK2830371 increased the phosphorylation of p53 at Serine 15 in two Ewing sarcoma cell lines” and the “phosphorylation of Serine 15 of p53 (Western blot) after GSK2830371 treatment” value is reported as “GSK2830371 reduced the protein levels of Wip1 in a time-dependent manner and triggered a surge in phosphorylation of Serine 15 of p53”.
